Laboratory results as given in paper PMC7360481.

Target: Sox2 (Mus musculus, UniProt P48432 1-319)
Assay: EMSA

Chain of Sox2 (P48432 whole entry): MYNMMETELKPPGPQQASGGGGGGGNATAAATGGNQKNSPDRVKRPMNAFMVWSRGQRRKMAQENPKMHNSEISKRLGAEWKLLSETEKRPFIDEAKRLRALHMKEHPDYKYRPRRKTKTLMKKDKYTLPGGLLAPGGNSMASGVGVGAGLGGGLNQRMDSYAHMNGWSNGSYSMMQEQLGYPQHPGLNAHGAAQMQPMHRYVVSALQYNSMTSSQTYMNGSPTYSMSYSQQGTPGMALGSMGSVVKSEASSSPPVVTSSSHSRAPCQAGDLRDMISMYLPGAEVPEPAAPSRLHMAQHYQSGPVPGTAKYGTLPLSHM

B1: RNA/DNA hybrid (DNA:RNA)
RNA: CCUACUACCUGUGCCUUUAAGUACCUUUUCUGUCUUCUA
DNA: TAGAAGACAGAAAAGGTACTCTAAAGGCACAGGTAGTAGG
binding result: no binding
